{"source": "paper PMC5750076", "about": "(2017)", "molecular_target": "mTORΔN-mLST8 mTORΔN (Homo sapiens, UniProt P42345)", "experiment": "kinase inhibition assay"}
{"binder": "PRAS40 114-256 (protein) not shown", "values": [{"measurement": "Ki", "result": "~52", "unit": "µM"}]}
